Source: the supplement of paper PMC10126150
± gives the standard deviation of the averaged measurements.

tested on: ATP; experiment: switch fluorescence ratio, 500 uM ATP over buffer (Cy3 cluster intensity, sum of 5 cycles each) (fold (ratio)); higher = stronger signal-on switching upon ATP binding; sequences stand for … in TCGTCGGCAGCGTCAGATGTGTATAAGAGACAGTTTTTTTTTTTTTTTTTTTTTTTTT…TC; conditions: aptamer strand: ATP DNA aptamer (quencher-CACCTGGGGGAGTATTGCGGAGGAAGG + anchor), 100 nM annealed; ATP concentration: 500 uM
Outline: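 Imaging in selection buffer was followed by imaging after 15 min with 500 uM ATP at 22 °C, for Cy3-labelled switching-strand clusters annealed to 100 nM quencher-labelled ATP aptamer on a modified Illumina MiSeq flow-cell. Five of these buffer/ATP cycles ran, separated by NaOH stripping and re-annealing. The fluorescence ratio per cluster is summed target-cycle over summed buffer-cycle Cy3 intensity, averaged per switch-domain sequence; clusters outside 100-1000 RFU were removed.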
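Further: ATP exposure 15 min at 22 °C before imaging.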

Sequence	switch fluorescence ratio
GTTGGGGCAG	0.961 ± 0.034
GTTGGGGGGT	0.989 ± 0.02
GTTGGGTAGG	0.963 ± 0.028
GTTGGGTATT	1.01 ± 0.021
GTTGGGTTTG	0.999 ± 0.026
GTTGGGTTTT	1.02 ± 0.06
GTTGGTACTT	0.991 ± 0.02
GTTGGTATAG	1.01 ± 0.025
GTTGGTATTT	0.971 ± 0.023
GTTGGTCTGA	0.954 ± 0.022
GTTGGTGATT	0.9959 ± 0.0062
GTTGGTGGCG	1.02 ± 0.044
GTTGGTGGGT	0.98 ± 0.032
GTTGGTTAGG	0.959 ± 0.0071
GTTGTAAGGT	0.986 ± 0.034
GTTGTAGAGT	1.03 ± 0.032
GTTGTAGGGG	0.987 ± 0.024
GTTGTATCAC	0.9832 ± 0.0097
GTTGTCGGGT	1.05 ± 0.12
GTTGTCTAAT	0.9991 ± 0.0073
GTTGTGAGAG	0.999 ± 0.054
GTTGTGCAAT	1.16 ± 0.0012
GTTGTGCTGG	1.01 ± 0.018
GTTGTGGCTC	0.975 ± 0.036
GTTGTGGGGG	1.01 ± 0.049

Sequence	switch fluorescence ratio
GTTGTGGTTA	1.02 ± 0.015
GTTGTGTCGG	1.01 ± 0.019
GTTGTGTGGG	0.985 ± 0.035
GTTGTTACTG	1.02 ± 0.019
GTTGTTAGGG	1 ± 0.0046
GTTGTTCAAA	0.989 ± 0.015
GTTGTTGCTT	0.982 ± 0.029
GTTGTTGGGA	0.9898 ± 0.003
GTTGTTGGTG	1.01 ± 0.015
GTTGTTTAGT	0.994 ± 0.026
GTTGTTTCAG	0.969 ± 0.022
GTTGTTTTAA	1.05 ± 0.011
GTTTAAAATC	0.99757 ± 0.00014
GTTTAAATCC	0.989 ± 0.05
GTTTAAATTC	1 ± 0.08
GTTTAACGGT	1 ± 0.012
GTTTAAGGGC	0.988 ± 0.032
GTTTACGGGC	1.03 ± 0.027
GTTTATATGT	1.01 ± 0.049
GTTTCCAATC	1.02 ± 0.06
GTTTCCTGGG	1.03 ± 0.082
GTTTCGAGGT	0.96 ± 0.012
GTTTCGGGGA	1 ± 0.038
GTTTCTAGCT	0.969 ± 0.028
GTTTCTGGAG	1.03 ± 0.013

Sequence	switch fluorescence ratio
GTTTCTGGAT	0.98 ± 0.032
GTTTCTTTGG	1.06 ± 0.13
GTTTGAACGG	0.993 ± 0.018
GTTTGAGATA	0.971 ± 0.035
GTTTGAGCAC	1.02 ± 0.023
GTTTGAGGCT	1 ± 0.046
GTTTGAGTTT	0.996 ± 0.026
GTTTGATCTG	0.959 ± 0.026
GTTTGATGCG	0.995 ± 0.022
GTTTGCCAGG	1.01 ± 0.013
GTTTGCTGGG	0.983 ± 0.035
GTTTGGAGGA	0.96 ± 0.024
GTTTGGATAT	0.963 ± 0.01
GTTTGGATGC	0.963 ± 0.03
GTTTGGCATA	1.14 ± 0.19
GTTTGGCCGT	0.97 ± 0.035
GTTTGGGATA	0.992 ± 0.034
GTTTGGGGGG	1.04 ± 0.13
GTTTGTACCG	1 ± 0.051
GTTTGTACGT	0.975 ± 0.038
GTTTGTAGTT	0.968 ± 0.037
GTTTGTCACC	1.03 ± 0.034
GTTTGTGCT	0.988 ± 0.019
GTTTGTGTCA	0.993 ± 0.052
GTTTGTTACT	0.964 ± 0.052

Sequence	switch fluorescence ratio
GTTTGTTATC	0.98 ± 0.0057
GTTTTAAGGT	1.017 ± 0.0067
GTTTTAATTC	0.9628 ± 0.0036
GTTTTAGGAG	0.995 ± 0.043
GTTTTAGTAG	1.02 ± 0.015
GTTTTATAAA	0.9762 ± 0.0028
GTTTTATGAT	0.967 ± 0.016
GTTTTATTGT	0.955 ± 0.038
GTTTTATTTG	1.01 ± 0.025
GTTTTCAATT	0.983 ± 0.01
GTTTTCAGGG	1.02 ± 0.037
GTTTTCAGGT	0.992 ± 0.037
GTTTTCCGTC	1 ± 0.013
GTTTTCGGAT	0.983 ± 0.013
GTTTTCGGTT	1.013 ± 0.0056
GTTTTCTGGA	0.9988 ± 0.0057
GTTTTCTTGG	0.977 ± 0.013
GTTTTGGGAT	1.02 ± 0.031
GTTTTTAACT	1.012 ± 0.0075
GTTTTTAGAT	0.9709 ± 0.0092
GTTTTTATGA	0.973 ± 0.017
GTTTTTCCAG	0.9844 ± 0.0061
GTTTTTGTTA	0.991 ± 0.036
GTTTTTTAAG	0.9877 ± 0.0089
GTTTTTTGGG	1 ± 0.042

Sequence	switch fluorescence ratio
GTTTTTTTTT	1.02 ± 0.07
TAAAAAAAGG	1.05 ± 0.067
TAAAAAACCG	1.03 ± 0.025
TAAAAAAGAT	0.978 ± 0.017
TAAAAAAGGA	1.05 ± 0.12
TAAAAACGAC	1.04 ± 0.051
TAAAAACGGA	0.989 ± 0.042
TAAAAACGGG	1.05 ± 0.11
TAAAAACGTT	1.07 ± 0.086
TAAAAAGACG	1.04 ± 0.075
TAAAAAGGAC	0.9809 ± 0.008
TAAAAAGGAT	1.01 ± 0.02
TAAAAATACT	1.07 ± 0.11
TAAAAATTTG	1.07 ± 0.082
TAAAACAGGA	0.97 ± 0.017
TAAAACATTG	1.03 ± 0.015
TAAAACCAGT	1.04 ± 0.035
TAAAACCTAA	1.12 ± 0.25
TAAAACGGGG	1.02 ± 0.074
TAAAAGAGAT	1.04 ± 0.026
TAAAAGATGG	1.02 ± 0.019
TAAAAGGCGG	1.03 ± 0.029
TAAAAGGGCG	1.03 ± 0.012
TAAAAGGTAC	1.07 ± 0.07
TAAAAGGTGA	0.99 ± 0.029

Sequence	switch fluorescence ratio
TAAAAGTATG	0.969 ± 0.054
TAAAATGAGA	0.98 ± 0.031
TAAAATGCAT	0.979 ± 0.024
TAAAATGGAA	1.05 ± 0.1
TAAAATGGTG	1.01 ± 0.035
TAAAATTCGG	1.01 ± 0.018
TAAACAAACG	1.12 ± 0.028
TAAACACAGG	1.16 ± 0.044
TAAACACCTG	1.02 ± 0.095
TAAACCGAGC	1.73 ± 0.27
TAAACGAGGG	1.01 ± 0.014
TAAACGGGGT	1.03 ± 0.032
TAAACGGTGC	1.07 ± 0.023
TAAACTGCGA	1.07 ± 0.054
TAAAGAAAAA	1.02 ± 0.029
TAAAGAAAGC	0.9755 ± 0.0029
TAAAGAAGGG	0.988 ± 0.033
TAAAGAGGTG	1.11 ± 0.053
TAAAGCAGGC	1.11 ± 0.14
TAAAGCGAAC	1.29 ± 0.098
TAAAGCGTTG	0.9656 ± 0.0077
TAAAGGACTT	1.05 ± 0.087
TAAAGGAGAT	1.03 ± 0.032
TAAAGGAGTT	0.981 ± 0.032
TAAAGGCTAT	1 ± 0.026

Sequence	switch fluorescence ratio
TAAAGGGCGA	0.999 ± 0.027
TAAAGGGCGT	0.967 ± 0.021
TAAAGGGGAT	1.08 ± 0.16
TAAAGGGTG	1.08 ± 0.037
TAAAGGTAAT	1.01 ± 0.024
TAAAGGTTGT	0.994 ± 0.055
TAAAGTTATT	1.0106 ± 0.00041
TAAAGTTCTG	1.01 ± 0.023
TAAATAGGGT	1.05 ± 0.12
TAAATAGTAC	1.07 ± 0.032
TAAATCCGGA	0.995 ± 0.06
TAAATCTAGA	1.016 ± 0.01
TAAATGAGGA	1.03 ± 0.047
TAAATGGA	1.04 ± 0.039
TAAATGTTAA	0.9889 ± 0.0051
TAAATTACTA	1.05 ± 0.04
TAAATTAGTT	1.01 ± 0.017
TAAATTGCTT	0.991 ± 0.012
TAAATTTGTA	0.99 ± 0.028
TAAATTTTAA	0.9818 ± 0.0082
TAAATTTTTA	0.986 ± 0.052
TAAATTTTTG	1.07 ± 0.097
TAACAGAGGT	1.01 ± 0.033
TAACAGATGG	1.01 ± 0.029
TAACAGGTGG	1.02 ± 0.036

Sequence	switch fluorescence ratio
TAACAGTTAA	1.03 ± 0.027
TAACATAATT	1 ± 0.023
TAACCACCGG	1.03 ± 0.011
TAACCGATGT	1.01 ± 0.016
TAACGCTAGA	1.06 ± 0.03
TAACGCTTAA	1.09 ± 0.033
TAACGGCGTG	1.03 ± 0.021
TAACGGGTCG	0.937 ± 0.06
TAACGTAGGA	1.07 ± 0.031
TAACGTCCAG	0.978 ± 0.012
TAACTATATA	1.06 ± 0.014
TAACTGCATT	1.16 ± 0.14
TAACTGGTAC	1.13 ± 0.05
TAACTGTGAT	0.988 ± 0.025
TAACTTTCTT	0.987 ± 0.025
TAAGAAAAGT	0.9745 ± 0.0014
TAAGAAATGT	1.04 ± 0.04
TAAGAAGGTC	1.01 ± 0.054
TAAGAAGTAT	0.999 ± 0.034
TAAGAGAAGT	1.018 ± 0.0073
TAAGAGATAG	0.976 ± 0.012
TAAGAGCCAT	1.04 ± 0.013
TAAGAGGAGG	0.98337 ± 0.00017
TAAGAGGAGT	0.985 ± 0.013
TAAGAGGATC	1.0083 ± 6.4e-05
